The results in this text go back to patent US20130123350, “NUCLEIC ACID MOLECULE CAPABLE OF BINDING TO c-MET AND USE THEREOF” (KANAGAWA PREFECTURAL HOSPITAL ORGANIZATION, published 2013).

Data set [1] has as its target rec-cMet (Recombinant Human HGF R/c-MET/Fc Chimera) (Homo sapiens, UniProt P08581;P08581 SEQ:1-283,SEQ:1-625). The data set can be described thus: ELONA; high binding; Table 2 misnumbers as SEQ 45; also SPR FIG. 11. The conditions noted are these: tags: C-terminal HIEGRMD linker, human IgG Fc (100-330), 6xHis; R&D Systems; chain copies: 2 (inferred, Fc chimera). As for the experimental part: An anti-IgG antibody (trade name: “Human IgG-Fc Antibody”, Bethyl Laboratories) was adsorbed on a 96-well plate (Iwaki, AGC Techno Glass Co., Ltd., Japan), and then was subjected to blocking using 1% bovine serum albumin. Subsequently, 50 μL of the 1 μg/mL rec-cMet was added to the plate. Further, Tris (20 mmol/L), sodium chloride (100 mmol/L), magnesium acetate (0.1 mmol/L) and Triton (registered trademark)-X100 (0.2%) were added to the plate so that their final concentrations would be as shown in the parentheses. The plate was incubated at room temperature for 3 hours, thus causing the rec-cMet to bind to the plate. After the incubation, the plate was washed three times with a washing solution. The composition of the washing solution was as follows: 20 mmol/L Tris, 100 mmol/L sodium chloride, 0.1 mmol/L magnesium acetate, and 0.2% Triton (registered trademark)-X100. As a control, incubation and washing were carried out in the same manner, except that 50 μL of the washing solution was added instead of 50 μL of the rec-cMet.
Next, a 20-mer polyadenine (poly A) was added to the 3′ end of each of the RNA aptamers. Thus, poly-A-added RNA aptamers were prepared. […] The plate was then washed, after which a 1-Step Ultra TMB substrate (Thermo Fisher Scientific Inc., USA) was added to the plate to cause color development, and the absorbance at 450 nm was measured.

For data set [2], the target named is rec-NGFR (Recombinant Human NGF R/TNFRSF16/Fc Chimera) (Homo sapiens, UniProt P08138 SEQ:1-222). The data set can be described thus: ELONA; signal below 40N. As to conditions: tags: C-terminal DIEGRMD linker, human IgG Fc (100-330), 6xHis; R&D Systems; chain copies: 2 (inferred, Fc chimera). As for the experimental part:
Next, a 20-mer polyadenine (poly A) was added to the 3′ end of each of the RNA aptamers. Thus, poly-A-added RNA aptamers were prepared. Each of the poly-A-added RNA aptamers was denatured, and thereafter, the denatured poly-A-added RNA aptamer was mixed with a 20-mer biotinylated polythymine with its 5′ end being biotinylated (740 nmol/L), tRNA (100 μg/mL), and an RNase inhibitor (0.16 units/mL). As a result, complementary binding occurred between the poly A in the poly-A-added RNA aptamer and the polythymine (poly T) in the biotinylated polythymine, whereby a biotin-labeled RNA aptamer was produced. The biotin-labeled RNA aptamer was added to the plate, and the plate was incubated at 4° C. for 30 minutes. Subsequently, the plate was washed, and 0.1 μg/mL HRP-streptavidin (Thermo Fisher Scientific Inc., USA) was added thereto. The plate was then washed, after which a 1-Step Ultra TMB substrate (Thermo Fisher Scientific Inc., USA) was added to the plate to cause color development, and the absorbance at 450 nm was measured.
The binding ability of each of the RNA aptamers to the rec-NGFR was examined in the same manner as in Example 1, except that the rec-NGFR was bound to the plate. Also, as a comparative example, the 40N was used, and the binding ability thereof was examined in the same manner.

rec-NGFR (Recombinant Human NGF R/TNFRSF16/Fc Chimera), sequence (P08138 29-250, change not shown): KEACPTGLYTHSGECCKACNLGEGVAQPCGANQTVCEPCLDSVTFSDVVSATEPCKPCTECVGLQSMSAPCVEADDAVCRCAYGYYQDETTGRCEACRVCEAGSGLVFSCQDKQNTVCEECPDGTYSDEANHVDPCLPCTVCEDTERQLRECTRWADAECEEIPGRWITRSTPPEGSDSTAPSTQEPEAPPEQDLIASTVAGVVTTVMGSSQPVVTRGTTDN
rec-cMet (Recombinant Human HGF R/c-MET/Fc Chimera), sequence (P08581 25-307, change not shown, chain 1 of 2): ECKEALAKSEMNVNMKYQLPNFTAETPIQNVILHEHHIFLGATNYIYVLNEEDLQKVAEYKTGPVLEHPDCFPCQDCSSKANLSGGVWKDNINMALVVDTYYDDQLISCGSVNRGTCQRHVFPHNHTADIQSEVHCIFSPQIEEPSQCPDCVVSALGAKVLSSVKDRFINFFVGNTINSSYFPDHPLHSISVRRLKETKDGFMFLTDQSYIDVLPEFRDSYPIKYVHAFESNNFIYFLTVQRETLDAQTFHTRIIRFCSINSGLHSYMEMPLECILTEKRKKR
rec-cMet (Recombinant Human HGF R/c-MET/Fc Chimera), sequence (P08581 308-932, change not shown, chain 2 of 2): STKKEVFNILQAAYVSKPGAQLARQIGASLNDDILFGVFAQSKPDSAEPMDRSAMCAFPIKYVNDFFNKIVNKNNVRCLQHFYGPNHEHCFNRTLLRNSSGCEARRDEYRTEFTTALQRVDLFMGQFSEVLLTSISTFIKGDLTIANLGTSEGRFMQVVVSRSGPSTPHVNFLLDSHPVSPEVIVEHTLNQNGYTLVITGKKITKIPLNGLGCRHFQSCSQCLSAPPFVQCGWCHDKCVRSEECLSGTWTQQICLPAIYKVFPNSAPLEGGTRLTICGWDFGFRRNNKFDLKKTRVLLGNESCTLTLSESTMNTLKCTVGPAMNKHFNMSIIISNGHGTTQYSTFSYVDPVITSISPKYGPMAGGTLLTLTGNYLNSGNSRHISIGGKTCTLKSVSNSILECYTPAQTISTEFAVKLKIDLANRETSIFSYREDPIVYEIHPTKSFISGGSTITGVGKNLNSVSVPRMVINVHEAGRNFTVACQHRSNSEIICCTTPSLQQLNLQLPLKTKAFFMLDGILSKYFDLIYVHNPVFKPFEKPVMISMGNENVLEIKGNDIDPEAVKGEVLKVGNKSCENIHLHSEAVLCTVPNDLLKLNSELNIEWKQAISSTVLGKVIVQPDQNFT

B1: g6 (ssRNA)
RNA: GGGACGCUCACGUACGCUAAUCCAGGUGUGGCGAGCCACUGUAAGAGUCGCCGUGAGGAUUCAGUGCCUGGACGUGCAGU
B1: the binding result in data set [1] is recorded as “binds”; in data set [2] it was “no binding”.
